Measured values from patent publication US9187525B2, “Methods of treating ophthalmic diseases using NPR-B agonists” (Shire Orphan Therapies GmbH, dated 2015).
Numbered stars: 1 amine (or outer) side, 2 acyl side, 3 side chain; on linkers, the order of the positions; unused ones are H or OH. Square brackets hold non-standard residues; d marks the D form. Ends that are not written are not given here. * marks the point of attachment. AFL = (S)-2-((S)-3-amino-2-oxopyrrolidin-1-yl)-3-phenylpropanoic acid, O=C1[C@@H](N[*:1])CCN1[C@@H](Cc1ccccc1)C(=O)[*:2]; Tap(Ae) = (2S,4R)-4-(2-aminoethylamino)pyrrolidine-2-carboxylic acid, O=C([C@@H]1C[C@@H](NCCN[*:3])CN1[*:1])[*:2]; Pca = (2S,3R)-3-aminopyrrolidine-2-carboxylic acid, O=C([C@@H]1[C@H](N[*:3])CCN1[*:1])[*:2]; Pro(trans-4-NH2) = O=C([C@@H]1C[C@@H](N[*:3])CN1[*:1])[*:2]; Sni = (S)-nipecotic acid, O=C([C@H]1CCCN([*:1])C1)[*:2]; Gly(2-thienyl) = N[C@H](C(=O)O)c1cccs1; Hyp = O=C(O)[C@@H]1C[C@@H](O)CN1; hPhe = N[C@@H](CCc1ccccc1)C(=O)O; NMeL = CN[C@@H](CC(C)C)C(=O)O; Chg = N[C@H](C(=O)O)C1CCCCC1; BB394 = not defined here; BB785 = not defined here; Api = NC1(C(=O)O)CCNCC1; Che = not defined here; Hexanoyl = CCCCCC(=O)*; NP = not defined here; Occ = octanoic acid

T1: natriuretic peptide receptor-B (human)
T1 chain: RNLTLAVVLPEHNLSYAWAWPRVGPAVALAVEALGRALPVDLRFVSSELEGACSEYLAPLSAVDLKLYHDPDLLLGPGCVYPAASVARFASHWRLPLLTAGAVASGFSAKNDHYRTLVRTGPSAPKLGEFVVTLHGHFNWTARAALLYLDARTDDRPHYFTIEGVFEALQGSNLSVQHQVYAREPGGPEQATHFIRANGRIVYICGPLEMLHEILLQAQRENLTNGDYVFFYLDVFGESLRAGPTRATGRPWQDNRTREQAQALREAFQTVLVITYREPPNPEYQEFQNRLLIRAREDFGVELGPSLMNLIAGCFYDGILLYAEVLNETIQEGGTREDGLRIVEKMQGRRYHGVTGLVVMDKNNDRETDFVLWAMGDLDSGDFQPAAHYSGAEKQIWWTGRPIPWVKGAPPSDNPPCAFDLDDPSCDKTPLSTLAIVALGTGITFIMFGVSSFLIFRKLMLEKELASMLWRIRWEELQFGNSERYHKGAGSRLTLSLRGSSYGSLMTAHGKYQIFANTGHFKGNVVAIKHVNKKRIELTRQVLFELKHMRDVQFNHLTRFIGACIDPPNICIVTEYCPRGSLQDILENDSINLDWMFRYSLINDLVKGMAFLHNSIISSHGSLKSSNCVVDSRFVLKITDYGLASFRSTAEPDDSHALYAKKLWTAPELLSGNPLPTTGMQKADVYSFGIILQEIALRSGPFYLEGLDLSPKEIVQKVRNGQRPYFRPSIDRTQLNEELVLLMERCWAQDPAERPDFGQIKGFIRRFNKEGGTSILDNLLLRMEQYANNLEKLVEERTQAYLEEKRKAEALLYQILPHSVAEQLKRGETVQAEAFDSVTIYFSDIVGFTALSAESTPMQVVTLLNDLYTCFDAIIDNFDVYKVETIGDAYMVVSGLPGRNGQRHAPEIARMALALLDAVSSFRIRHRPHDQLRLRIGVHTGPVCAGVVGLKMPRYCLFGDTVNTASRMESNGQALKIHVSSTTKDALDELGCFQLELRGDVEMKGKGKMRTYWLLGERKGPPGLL


Molecular target: T1, natriuretic peptide receptor-B
Assay: cell-based or functional assay

Binder | EC50 group, cGMP in GTM-3 cells
[Occ][Sni]FLL[Tap(Ae)][NMeL]VR[Che] (not fully specified (residue 4); printed as Occ-Sni-Phe-leu-Leu-Tap(Ae)-Nml-Val-Arg-Che; reading uncertain) [JAL-1683] | ≤ 15 µM
[Occ][AFL][dL]L[Hyp][NMeL]DRI-NH2 [JAL-1671] | ≤ 1 µM
[Occ][Sni]FLL[Hyp][NMeL]D[Apc(Gly)][Che] (not fully specified (residue 4); printed as Occ-Sni-Phe-leu-Leu-Hyp-Nml-Asp-Apc(Gly)-Che; reading uncertain) [JAL-1687] | ≤ 5 µM
XXFGLKLDRI (HELM PEPTIDE1{[CCCCCC(=O)[*:2]].[O=C(c1nc(N[*:1])cs1)[*:2]].F.G.L.K.L.D.R.I.[am]}$$$$V2.0; SMILES CCCCCC(=O)Nc1csc(C(=O)N[C@@H](Cc2ccccc2)C(=O)NCC(=O)N[C@@H](CC(C)C)C(=O)N[C@@H](CCCCN)C(=O)N[C@@H](CC(C)C)C(=O)N[C@@H](CC(=O)O)C(=O)N[C@@H](CCCNC(=N)N)C(=O)N[C@H](C(N)=O)[C@@H](C)CC)n1) [JAL-0713] | ≤ 15 µM
Hexanoyl-[dA][dA]FGLKLDR[Chg]-NH2 [JAL-0718] | ≤ 15 µM
[Occ][Sni]F[dL]L[Hyp][NMeL]DR[Che] (reading uncertain; also: printed as Occ-Sni-Phe-leu-Leu-Hyp-Nml-Asp-Arg-Che) [JAL-1680] | ≤ 1 µM
[Occ][Sni]FLL[Tap(Ae)][NMeL]DR[Che] (not fully specified (residue 4); printed as Occ-Sni-Phe-leu-Leu-Tap(Ae)-Nml-Asp-Arg-Che; reading uncertain) [JAL-1681] | ≤ 1 µM
[Occ][Sni]F[dL]L[Hyp][NMeL][NP][Che] (reading uncertain; also: printed as Occ-Sni-Phe-leu-Leu-Hyp-Nml-NP-Che) [JAL-1673] | ≤ 15 µM
[Occ][Sni]F[dL]L[Pro(trans-4-NH2)][NMeL][Gly(2-thienyl)]P[Che] (reading uncertain; also: printed as Occ-Sni-Phe-leu-Leu-Tap-Nml-(BB726)-Pro-Che) [JAL-1676] | ≤ 5 µM
[Occ][Sni]F[dL]L[Hyp][NMeL]D[Pca][Che] (reading uncertain; also: printed as Occ-Sni-Phe-leu-Leu-Hyp-Nml-Asp-Pca-Che) [JAL-1679] | ≤ 1 µM
XXXFLLXXDRI (HELM PEPTIDE1{[O=C(CCc1ccccc1)[*:2]].[bAla].[O=C([C@H]1CCCN([*:1])C1)[*:2]].F.[dL].L.[Hyp].[meL].D.R.I.[am]}$$$$V2.0; SMILES CC[C@H](C)[C@H](NC(=O)[C@H](CCCNC(=N)N)NC(=O)[C@H](CC(=O)O)NC(=O)[C@H](CC(C)C)N(C)C(=O)[C@@H]1C[C@@H](O)CN1C(=O)[C@H](CC(C)C)NC(=O)[C@@H](CC(C)C)NC(=O)[C@H](Cc1ccccc1)NC(=O)[C@H]1CCCN(C(=O)CCNC(=O)CCc2ccccc2)C1)C(N)=O) [JAL-1669] | ≤ 15 µM
[Occ][Sni]F[dL]L[Hyp][NMeL]D[Api][Che] (reading uncertain; also: printed as Occ-Sni-Phe-leu-Leu-Hyp-Nml-Asp-Apc-Che) [JAL-1672] | ≤ 15 µM
[Occ][Sni]FLL[Pro(trans-4-NH2)][NMeL]DR[Che] (not fully specified (residue 4); printed as Occ-Sni-Phe-leu-Leu-Tap-Nml-Asp-Arg-Che; reading uncertain) [JAL-1682] | ≤ 1 µM
[Occ][Sni]FLL[Hyp][NMeL]D[Apc(Gua)][Che] (not fully specified (residue 4); printed as Occ-Sni-Phe-leu-Leu-Hyp-Nml-Asp-Apc(Gua)-Che; reading uncertain) [JAL-1685] | ≤ 15 µM
[Occ][Sni]FLL[Hyp][NMeL]D[BB394][Che] (not fully specified (residue 4); printed as Occ-Sni-Phe-leu-Leu-Hyp-Nml-Asp-(BB394)-Che; reading uncertain) [JAL-1694] | ≤ 15 µM

Results, then the binder that gave them:

EC50 group, cGMP in GTM-3 cells | Binder
≤ 15 µM | [Occ][Sni]FLL[Hyp][NMeL]NR[Che] (not fully specified (residue 4); printed as Occ-Sni-Phe-leu-Leu-Hyp-Nml-Asn-Arg-Che; reading uncertain) [JAL-1751]
≤ 1 µM | [Occ][Sni]FLL[Pro(trans-4-NH2)][NMeL]VR[Che] (not fully specified (residue 4); printed as Occ-Sni-Phe-leu-Leu-Tap-Nml-Val-Arg-Che; reading uncertain) [JAL-1729]
≤ 15 µM | [Occ][Sni][hPhe]LL[Hyp][NMeL]DRI-NH2 (not fully specified (residue 4); printed as Occ-Sni-Hfe-leu-Leu-Hyp-Nml-Asp-Arg-Ile-) [JAL-1701]
≤ 5 µM | [Occ][Sni]FLL[Hyp][NMeL]D[BB785][Che] (not fully specified (residue 4); printed as Occ-Sni-Phe-leu-Leu-Hyp-Nml-Asp-(BB785)-Che; reading uncertain) [JAL-1697]
≤ 1 µM | [Occ][Sni]FLL[Hyp][NMeL]VR[Che] (not fully specified (residue 4); printed as Occ-Sni-Phe-leu-Leu-Hyp-Nml-Val-Arg-Che; reading uncertain) [JAL-1730]
≤ 1 µM | [Occ][Sni]FLL[Hyp][NMeL]TR[Che] (not fully specified (residue 4); printed as Occ-Sni-Phe-leu-Leu-Hyp-Nml-Thr-Arg-Che; reading uncertain) [JAL-1753]
≤ 1 µM | [Occ][Sni]FLL[Hyp][NMeL]SR[Che] (not fully specified (residue 4); printed as Occ-Sni-Phe-leu-Leu-Hyp-Nml-Ser-Arg-Che; reading uncertain) [JAL-1752]
